How the values were obtained:
HeLa Kyoto [1] = test: solubility in G1/S (NP-40 vs SDS abundance) (log2 ratio); higher = more soluble; settings: cell cycle stage: G1/S
HeLa Kyoto [2] = test: melting temperature (median over replicates), in situ; higher = more thermally stable
HeLa Kyoto [3] = test: solubility change mitosis vs G1/S (difference of NP-40 vs SDS log2 ratios) (log2 ratio difference); higher = more soluble in mitosis
HeLa Kyoto [4] = test: thermal stability score vs G1/S (z-score of summed log2 fold changes over temperatures); higher = more thermally stable than in G1/S
[5] = cell cycle stage: early G1 (4.5 h after nocodazole release)
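Throughout, for melting temperature (median over replicates), in situ: HeLa Kyoto cells synchronized by double thymidine or nocodazole block, proteins quantified by TMT10plex mass spectrometry, three independent biological replicates.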
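Throughout, for solubility change mitosis vs G1/S (difference of NP-40 vs SDS log2 ratios): synchronized HeLa Kyoto cells (double thymidine block for G1/S, nocodazole release for mitosis), protein amounts in NP-40 versus SDS lysates quantified by mass spectrometry, three biological replicates.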
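Throughout, for solubility in G1/S (NP-40 vs SDS abundance): HeLa Kyoto cells arrested at G1/S by double thymidine block, proteins quantified by TMT10plex mass spectrometry in mild NP-40 versus SDS extracts, three biological replicates.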
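Throughout, for thermal stability score vs G1/S (z-score of summed log2 fold changes over temperatures): synchronized HeLa Kyoto cells, proteins quantified by TMT10plex mass spectrometry, three biological replicates, mitosis taken 0.5 h after nocodazole release, G1/S directly after double thymidine block.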

In the case of “MSAHNRGTELDLSWISKIQVNHPAVLRRAEQIQARRTVKKEWQAAWLLKAVTFIDLTTLSGDDTSSNIQRLCYKAKYPIREDLLKALNMHDKGITTAAVCVYPARVCDAVKALKAAGCNIPVASVAAGFPAGQTHLKTRLEEIRLAVEDGATEIDVVINRSLVLTGQWEALYDEIRQFRKACGEAHLKTILATGELGTLTNVYKASMIAMMAGSDFIKTSTGKETVNATFPVAIVMLRAIRDFFWKTGNKIGFKPAGGIRSAKDSLAWLSLVKEELGDEWLKPELFRIGASTLLSDIERQIYHHVTGRYAAYHDLPMS [DERA]”, the “solubility in G1/S (log2)” value (HeLa Kyoto [1]) is reported as -0.131, the melting temperature (HeLa Kyoto [2]; cell cycle stage: G1/S) is reported as 56.1 °C and the melting temperature (HeLa Kyoto [2]; cell cycle stage: mitosis) is reported as 56.1 °C. For the same sequence, the “solubility change mitosis (log2)” value (HeLa Kyoto [3]) was -0.0424, the thermal stability score (HeLa Kyoto [4]; [5]) was -3.39 and the thermal stability score (HeLa Kyoto [4]; cell cycle stage: mitosis) was -3.58.

In the case of “MSAPFEERSGVVPCGTPWGQWYQTLEEVFIEVQVPPGTRAQDIQCGLQSRHVALSVGGREILKGKLFDSTIADEGTWTLEDRKMVRIVLTKTKRDAANCWTSLLESEYAADPWVQDQMQRKLTLERFQKENPGFDFSGAEISGNYTKGGPDFSNLEK [NUDCD2]”, the “solubility in G1/S (log2)” value (HeLa Kyoto [1]) is reported as 0.372, the melting temperature (HeLa Kyoto [2]; cell cycle stage: G1/S) is reported as 47.7 °C and the melting temperature (HeLa Kyoto [2]; cell cycle stage: mitosis) is reported as 49.5 °C. For the same sequence, the “solubility change mitosis (log2)” value (HeLa Kyoto [3]) was 0.035, the thermal stability score (HeLa Kyoto [4]; [5]) was 1.01 and the thermal stability score (HeLa Kyoto [4]; cell cycle stage: mitosis) was 2.41.

For “MSAPLDAALHALQEEQARLKMRLWDLQQLRKELGDSPKDKVPFSVPKIPLVFRGHTQQDPEVPKSLVSNLRIHCPLLAGSALITFDDPKVAEQVLQQKEHTINMEECRLRVQVQPLELPMVTTIQMSSQLSGRRVLVTGFPASLRLSEEELLDKLEIFFGKTRNGGGDVDVRELLPGSVMLGFARDGVAQRLCQIGQFTVPLGGQQVPLRVSPYVNGEIQKAEIRSQPVPRSVLVLNIPDILDGPELHDVLEIHFQKPTRGGGEVEALTVVPQGQQGLAVFTSESG [IFI35]”, the “solubility in G1/S (log2)” value (HeLa Kyoto [1]) was 0.654, the melting temperature (HeLa Kyoto [2]; cell cycle stage: G1/S) was 54.6 °C and the melting temperature (HeLa Kyoto [2]; cell cycle stage: mitosis) was 55.2 °C. The “solubility change mitosis (log2)” value (HeLa Kyoto [3]) was -0.0643, the thermal stability score (HeLa Kyoto [4]; [5]) was -1.43 and the thermal stability score (HeLa Kyoto [4]; cell cycle stage: mitosis) was -2.41.

“MSASAVYVLDLKGKVLICRNYRGDVDMSEVEHFMPILMEKEEEGMLSPILAHGGVRFMWIKHNNLYLVATSKKNACVSLVFSFLYKVVQVFSEYFKELEEESIRDNFVIIYELLDELMDFGYPQTTDSKILQEYITQEGHKLETGAPRPPATVTNAVSWRSEGIKYRKNEVFLDVIESVNLLVSANGNVLRSEIVGSIKMRVFLSGMPELRLGLNDKVLFDNTGRGKSKSVELEDVKFHQCVRLSRFENDRTISFIPPDGEFELMSYRLNTHVKPLIWIESVIEKHSHSRIEYMIKAKSQFKRRSTANNVEIHIPVPNDADSPKFKTTVGSVKWVPENSEIVWSIKSFPGGKEYLMRAHFGLPSVEAEDKEGKPPISVKFEIPYFTTSGIQVRYLKIIEKSGYQALPWVRYITQNGDYQLRTQ [AP1M1]” was tested, and the “solubility in G1/S (log2)” value (HeLa Kyoto [1]) was -0.0655, the melting temperature (HeLa Kyoto [2]; cell cycle stage: G1/S) was 50.8 °C and the melting temperature (HeLa Kyoto [2]; cell cycle stage: mitosis) was 50.6 °C. The “solubility change mitosis (log2)” value (HeLa Kyoto [3]) was -0.209, the thermal stability score (HeLa Kyoto [4]; [5]) was -0.363 and the thermal stability score (HeLa Kyoto [4]; cell cycle stage: mitosis) was -0.744.

For “MSASGVLSFTQQGWEQVLAKVKRAVVYLDAACAESLHWGCGSTRLLEAVGGPDCHLREFEPDAIGGGAKQPKAVFVLSCLLKGRTVEILRDIICRSHFQYCVVVTTVSHAVHLTANHVPAAAAAEMEGQQPVFEQLEEKLCEWMGNMNYTAEVFHVPLLLAPVAPHFALTPAFASLFPLLPQDVHLLNSARPDKRKLGSLGDVDSTTLTPELLLQIRCLVSGLSSLCEHLGVREECFAVGSLSQVIAADLANYAPAKNRKKTAAGRASVVFVDRTLDLTGAVGHHGDNLVEKIISALPQLPGHTNDVMVNMIALTALHTEEENYNVVAPGCLSQSSDTTAKALWEALLNTKHKEAVMEVRRHLVEAASRENLPIKMSMGRVTPGQLMSYIQLFKNNLKALMNHCGLLQLGLATAQTLKHPQTAKWDNFLAFERLLLQSIGESAMSVVLNQLLPMIKPVTQRTNEDYSPEELLILLIYIYSVTGELTVDKDLCEAEEKVKKALAQVFCEESGLSPLLQKITDWDSSINLTFHKSKIAVDELFTSLRDIAGARSLLKQFKSVYVPGNHTHQASYKPLLKQVVEEIFHPERPDSVDIEHMSSGLTDLLKTGFSMFMKVSRPHPSDYPLLILFVVGGVTVSEVKMVKDLVASLKPGTQVIVLSTRLLKPLNIPELLFATDRLHPDLGF [SCFD2]”, the “solubility in G1/S (log2)” value (HeLa Kyoto [1]) was -0.12, the melting temperature (HeLa Kyoto [2]; cell cycle stage: G1/S) was 49.8 °C and the melting temperature (HeLa Kyoto [2]; cell cycle stage: mitosis) was 49.9 °C. For the same sequence, the “solubility change mitosis (log2)” value (HeLa Kyoto [3]) was -0.0249, the thermal stability score (HeLa Kyoto [4]; [5]) was -0.157 and the thermal stability score (HeLa Kyoto [4]; cell cycle stage: mitosis) was 0.192.
